In patent US20240376204A1 (JIANGSU HENGRUI PHARMACEUTICALS, published 2024):

B1: A17h1-1708-151H7-C (trispecific antibody, human IgG4 S228P, kappa)
heavy: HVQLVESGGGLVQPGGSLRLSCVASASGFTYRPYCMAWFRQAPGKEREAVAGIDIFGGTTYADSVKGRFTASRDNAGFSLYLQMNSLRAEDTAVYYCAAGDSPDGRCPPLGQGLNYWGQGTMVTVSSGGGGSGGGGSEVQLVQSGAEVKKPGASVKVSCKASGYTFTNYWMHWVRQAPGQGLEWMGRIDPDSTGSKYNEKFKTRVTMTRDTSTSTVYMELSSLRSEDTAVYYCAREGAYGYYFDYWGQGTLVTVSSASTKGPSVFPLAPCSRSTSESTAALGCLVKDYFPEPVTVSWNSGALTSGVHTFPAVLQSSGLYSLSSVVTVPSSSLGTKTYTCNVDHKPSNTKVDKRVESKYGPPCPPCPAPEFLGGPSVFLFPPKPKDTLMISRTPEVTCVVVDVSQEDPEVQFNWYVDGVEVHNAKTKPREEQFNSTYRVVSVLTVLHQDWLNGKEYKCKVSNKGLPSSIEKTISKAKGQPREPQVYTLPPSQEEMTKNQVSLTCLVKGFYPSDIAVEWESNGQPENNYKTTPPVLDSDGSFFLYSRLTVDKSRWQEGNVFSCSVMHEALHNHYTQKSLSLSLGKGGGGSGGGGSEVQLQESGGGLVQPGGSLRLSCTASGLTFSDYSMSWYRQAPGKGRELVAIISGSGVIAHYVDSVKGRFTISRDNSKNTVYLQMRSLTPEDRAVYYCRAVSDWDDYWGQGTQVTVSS
light: DIQMTQSPSSLSASVGDRVTITCRASENIYSYLAWYQQKPGKSPKLLIYNARTLAEGVPSRFSGSGSGTDFTLTISSLQPEDFATYYCQYHSGSPLPFGGGTKVEIKRTVAAPSVFIFPPSDEQLKSGTASVVCLLNNFYPREAKVQWKVDNALQSGNSQESVTEQDSKDSTYSLSSTLTLSKADYEKHKVYACEVTHQGLSSPVTKSFNRGEC
notes: Type C
B2: 1708-151-2 (bispecific antibody, human IgG4 S228P, kappa)
heavy: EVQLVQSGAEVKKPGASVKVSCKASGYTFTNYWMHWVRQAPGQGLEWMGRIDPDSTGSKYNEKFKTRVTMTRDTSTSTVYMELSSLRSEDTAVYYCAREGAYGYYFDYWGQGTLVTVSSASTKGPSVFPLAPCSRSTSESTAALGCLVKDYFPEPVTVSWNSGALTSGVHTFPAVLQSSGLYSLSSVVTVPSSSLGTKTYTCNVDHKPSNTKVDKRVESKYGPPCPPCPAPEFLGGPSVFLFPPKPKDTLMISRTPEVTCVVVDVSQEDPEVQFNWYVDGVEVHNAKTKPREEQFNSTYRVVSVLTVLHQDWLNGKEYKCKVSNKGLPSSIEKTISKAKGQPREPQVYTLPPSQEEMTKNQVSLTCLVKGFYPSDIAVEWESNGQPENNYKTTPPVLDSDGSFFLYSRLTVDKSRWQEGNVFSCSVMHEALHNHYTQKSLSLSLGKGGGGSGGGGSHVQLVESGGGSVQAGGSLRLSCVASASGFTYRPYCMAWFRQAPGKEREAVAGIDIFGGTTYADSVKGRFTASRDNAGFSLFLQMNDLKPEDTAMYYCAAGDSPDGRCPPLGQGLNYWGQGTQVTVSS
light: DIQMTQSPSSLSASVGDRVTITCRASENIYSYLAWYQQKPGKSPKLLIYNARTLAEGVPSRFSGSGSGTDFTLTISSLQPEDFATYYCQYHSGSPLPFGGGTKVEIKRTVAAPSVFIFPPSDEQLKSGTASVVCLLNNFYPREAKVQWKVDNALQSGNSQESVTEQDSKDSTYSLSSTLTLSKADYEKHKVYACEVTHQGLSSPVTKSFNRGEC
notes: Anti-PVRIG/TIGIT
B3: A17h1-1708-151H7-A (trispecific antibody, human IgG4 S228P, kappa)
heavy: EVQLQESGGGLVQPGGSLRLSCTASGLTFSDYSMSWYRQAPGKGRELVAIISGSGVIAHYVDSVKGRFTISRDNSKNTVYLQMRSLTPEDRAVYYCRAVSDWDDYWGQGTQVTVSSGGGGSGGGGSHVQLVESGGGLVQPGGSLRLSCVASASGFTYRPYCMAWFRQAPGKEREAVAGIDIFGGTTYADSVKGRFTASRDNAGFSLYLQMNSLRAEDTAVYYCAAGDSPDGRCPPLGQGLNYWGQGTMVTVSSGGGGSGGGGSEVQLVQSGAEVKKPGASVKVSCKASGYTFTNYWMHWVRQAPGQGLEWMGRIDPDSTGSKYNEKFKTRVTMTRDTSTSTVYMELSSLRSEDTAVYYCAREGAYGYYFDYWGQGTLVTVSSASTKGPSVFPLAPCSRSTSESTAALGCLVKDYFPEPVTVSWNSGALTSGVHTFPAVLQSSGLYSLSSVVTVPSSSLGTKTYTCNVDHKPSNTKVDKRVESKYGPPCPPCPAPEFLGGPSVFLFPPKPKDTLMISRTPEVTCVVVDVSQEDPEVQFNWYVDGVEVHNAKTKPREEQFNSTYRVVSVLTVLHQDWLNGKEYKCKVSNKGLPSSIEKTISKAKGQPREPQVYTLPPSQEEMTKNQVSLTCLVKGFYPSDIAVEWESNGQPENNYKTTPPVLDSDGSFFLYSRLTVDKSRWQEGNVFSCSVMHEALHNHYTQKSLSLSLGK
light: DIQMTQSPSSLSASVGDRVTITCRASENIYSYLAWYQQKPGKSPKLLIYNARTLAEGVPSRFSGSGSGTDFTLTISSLQPEDFATYYCQYHSGSPLPFGGGTKVEIKRTVAAPSVFIFPPSDEQLKSGTASVVCLLNNFYPREAKVQWKVDNALQSGNSQESVTEQDSKDSTYSLSSTLTLSKADYEKHKVYACEVTHQGLSSPVTKSFNRGEC
B4: 1708-151-1 (bispecific antibody, human IgG4 S228P, kappa)
heavy: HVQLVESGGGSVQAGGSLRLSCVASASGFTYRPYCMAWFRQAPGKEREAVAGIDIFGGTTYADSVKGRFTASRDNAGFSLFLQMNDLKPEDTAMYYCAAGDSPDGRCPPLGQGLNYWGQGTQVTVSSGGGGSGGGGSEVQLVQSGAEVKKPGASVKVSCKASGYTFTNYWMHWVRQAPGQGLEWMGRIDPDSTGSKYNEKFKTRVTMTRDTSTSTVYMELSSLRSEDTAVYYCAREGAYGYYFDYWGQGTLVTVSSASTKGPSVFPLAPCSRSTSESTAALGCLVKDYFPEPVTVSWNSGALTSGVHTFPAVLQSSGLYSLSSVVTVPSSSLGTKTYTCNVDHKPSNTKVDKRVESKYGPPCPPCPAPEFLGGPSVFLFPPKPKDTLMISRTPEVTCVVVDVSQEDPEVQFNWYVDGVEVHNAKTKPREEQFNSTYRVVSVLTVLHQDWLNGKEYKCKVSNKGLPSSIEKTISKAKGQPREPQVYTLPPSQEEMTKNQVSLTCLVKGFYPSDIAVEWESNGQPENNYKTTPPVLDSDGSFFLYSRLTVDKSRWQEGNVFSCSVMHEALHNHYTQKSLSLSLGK
light: DIQMTQSPSSLSASVGDRVTITCRASENIYSYLAWYQQKPGKSPKLLIYNARTLAEGVPSRFSGSGSGTDFTLTISSLQPEDFATYYCQYHSGSPLPFGGGTKVEIKRTVAAPSVFIFPPSDEQLKSGTASVVCLLNNFYPREAKVQWKVDNALQSGNSQESVTEQDSKDSTYSLSSTLTLSKADYEKHKVYACEVTHQGLSSPVTKSFNRGEC
notes: Anti-PVRIG/TIGIT
B5: A17h1-1708-151H7-D (trispecific antibody, human IgG4 S228P, kappa)
heavy: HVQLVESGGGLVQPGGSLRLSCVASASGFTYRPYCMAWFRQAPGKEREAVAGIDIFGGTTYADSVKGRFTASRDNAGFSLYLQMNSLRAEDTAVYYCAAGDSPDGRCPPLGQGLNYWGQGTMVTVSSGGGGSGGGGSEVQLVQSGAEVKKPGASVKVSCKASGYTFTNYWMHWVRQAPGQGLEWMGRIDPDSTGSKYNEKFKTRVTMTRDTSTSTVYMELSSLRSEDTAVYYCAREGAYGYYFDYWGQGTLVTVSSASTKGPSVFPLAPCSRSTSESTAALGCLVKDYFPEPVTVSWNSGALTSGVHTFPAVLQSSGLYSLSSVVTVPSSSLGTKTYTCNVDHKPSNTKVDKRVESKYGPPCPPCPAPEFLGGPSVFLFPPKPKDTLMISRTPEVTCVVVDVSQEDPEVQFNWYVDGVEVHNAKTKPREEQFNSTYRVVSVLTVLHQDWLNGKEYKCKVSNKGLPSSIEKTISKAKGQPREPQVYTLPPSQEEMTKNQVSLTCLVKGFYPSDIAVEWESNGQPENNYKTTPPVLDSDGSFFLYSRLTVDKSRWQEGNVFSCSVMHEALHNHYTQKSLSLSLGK
light: DIQMTQSPSSLSASVGDRVTITCRASENIYSYLAWYQQKPGKSPKLLIYNARTLAEGVPSRFSGSGSGTDFTLTISSLQPEDFATYYCQYHSGSPLPFGGGTKVEIKRTVAAPSVFIFPPSDEQLKSGTASVVCLLNNFYPREAKVQWKVDNALQSGNSQESVTEQDSKDSTYSLSSTLTLSKADYEKHKVYACEVTHQGLSSPVTKSFNRGECGGGGSGGGGSEVQLQESGGGLVQPGGSLRLSCTASGLTFSDYSMSWYRQAPGKGRELVAIISGSGVIAHYVDSVKGRFTISRDNSKNTVYLQMRSLTPEDRAVYYCRAVSDWDDYWGQGTQVTVSS
B6: 1708-151-3 (bispecific antibody, human IgG4 S228P, kappa)
heavy: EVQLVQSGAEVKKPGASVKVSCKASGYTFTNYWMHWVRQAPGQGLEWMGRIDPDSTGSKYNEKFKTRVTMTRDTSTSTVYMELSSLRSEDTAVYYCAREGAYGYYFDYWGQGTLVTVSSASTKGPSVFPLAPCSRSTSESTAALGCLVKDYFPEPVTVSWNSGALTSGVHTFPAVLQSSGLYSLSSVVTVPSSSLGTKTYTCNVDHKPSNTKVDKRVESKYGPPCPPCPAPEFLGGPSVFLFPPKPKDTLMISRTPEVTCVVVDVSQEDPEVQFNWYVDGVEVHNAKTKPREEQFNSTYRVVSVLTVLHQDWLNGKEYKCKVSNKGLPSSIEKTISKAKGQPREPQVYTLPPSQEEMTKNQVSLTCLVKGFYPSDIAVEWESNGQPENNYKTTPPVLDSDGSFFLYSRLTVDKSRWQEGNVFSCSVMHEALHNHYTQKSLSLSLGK
light: HVQLVESGGGSVQAGGSLRLSCVASASGFTYRPYCMAWFRQAPGKEREAVAGIDIFGGTTYADSVKGRFTASRDNAGFSLFLQMNDLKPEDTAMYYCAAGDSPDGRCPPLGQGLNYWGQGTQVTVSSGGGGSGGGGSDIQMTQSPSSLSASVGDRVTITCRASENIYSYLAWYQQKPGKSPKLLIYNARTLAEGVPSRFSGSGSGTDFTLTISSLQPEDFATYYCQYHSGSPLPFGGGTKVEIKRTVAAPSVFIFPPSDEQLKSGTASVVCLLNNFYPREAKVQWKVDNALQSGNSQESVTEQDSKDSTYSLSSTLTLSKADYEKHKVYACEVTHQGLSSPVTKSFNRGEC
notes: Anti-PVRIG/TIGIT

Legend:
[1] = target: T1, human PD-1 expressed on cells (human, UniProt Q15116 25-288); assay: cell-based or functional assay
[2] = target: T2, his-tagged human PVRIG (h-PVRIG-his) recombinant protein (human, UniProt Q6DKI7 41-171, limits assumed); assay: ELISA, plate coated with PVRIG protein (his tag)
T2 construct: Acrobiosystems; also called Human PVRIG-his; human PVRIG recombinant protein; not shown: his tag
T2 sequence (looked up): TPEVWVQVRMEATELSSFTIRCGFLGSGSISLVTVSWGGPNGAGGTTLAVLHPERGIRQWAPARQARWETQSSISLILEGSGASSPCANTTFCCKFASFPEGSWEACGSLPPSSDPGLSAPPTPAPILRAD
Procedure: ELISA assays were performed. TIGIT or PVRIG protein (his tag, Acrobiosystems, PVG-H52H4) was dissolved in PBS to 1 μg/mL, and the solution was added to a 96-well plate at 100 μL/well. The plate was coated with the antigen overnight at 4° C. The plate was washed with PBST solution three times. PBST/1% BSA solution was added, and the plate was incubated at 37° C. for 1 h for blocking. After three washes with PBST solution, different concentrations of the trispecific antibodies (diluted with PBST/1% BSA solution) were added, and the plate was incubated at 37° C. for 1.5 h. The plate was washed with PBST solution three times. […] After three washes with PBST solution, TMB solution was added at 100 μL/well. After 5 min of reaction at room temperature, 50 μL of stop solution was added. OD450 values were measured using a microplate reader, and EC₅₀ was calculated.

[3] = target: T1, human PD-1 expressed on cells; assay: cell-based or functional assay; remark: listed apart in the source
[4] = target: T3, human TIGIT recombinant protein (human, UniProt Q495A1 22-141); assay: ELISA by the method of Example 2-2 with human TIGIT; numbers not given
T3 construct: also called human TIGIT antigen (AcroBiosystem, TIT-H52H3); TIGIT protein
T3 sequence (looked up): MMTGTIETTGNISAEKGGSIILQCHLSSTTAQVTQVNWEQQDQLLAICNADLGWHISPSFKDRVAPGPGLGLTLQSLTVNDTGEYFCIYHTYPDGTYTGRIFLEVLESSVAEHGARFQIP

[5] = target: T4, human TIGIT expressed on cells (human, UniProt Q495A1 22-244); assay: FACS by the method of Example 2-2 with human TIGIT; numbers not given
T4 construct: whole, on cells; also called cells overexpressing human TIGIT; CHO-K1 cell strain expressing the human TIGIT gene
T4 sequence (looked up): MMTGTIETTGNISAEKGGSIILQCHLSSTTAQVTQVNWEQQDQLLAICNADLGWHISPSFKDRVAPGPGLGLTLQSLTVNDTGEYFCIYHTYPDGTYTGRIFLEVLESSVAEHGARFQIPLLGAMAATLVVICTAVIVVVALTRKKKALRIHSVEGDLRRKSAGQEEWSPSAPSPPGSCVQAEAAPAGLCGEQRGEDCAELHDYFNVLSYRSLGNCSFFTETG

T1 sequence (Q15116 25-288 limits assumed): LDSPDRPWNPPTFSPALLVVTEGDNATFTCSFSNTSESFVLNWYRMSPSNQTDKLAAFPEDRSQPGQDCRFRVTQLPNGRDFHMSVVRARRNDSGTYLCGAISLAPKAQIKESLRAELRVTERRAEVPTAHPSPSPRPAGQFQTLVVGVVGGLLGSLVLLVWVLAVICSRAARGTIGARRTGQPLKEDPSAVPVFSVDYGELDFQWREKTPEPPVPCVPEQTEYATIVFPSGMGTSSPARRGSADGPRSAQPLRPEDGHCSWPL

Row | Binder | IC50 (read off the curve) [1] [nM] | EC50 [2] [nM] | DC:T MLR result, 0.1 nM antibody (unit not given) [3] | DC:T MLR result, 1 nM antibody (unit not given) [3] | DC:T MLR result, 10 nM antibody (unit not given) [3] | DC:T MLR result, 100 nM antibody (unit not given) [3] | binding result [4] | binding result [5]
1 | B1 | ~0.8 | 0.16 | 118 | 136 | 151 | 152 |  | 
2 | B2 |  |  |  |  |  |  | binds | binds
3 | B3 | ~0.9 | 0.0952 | 91.3 | 121 | 147 | 155 |  | 
4 | B4 |  |  |  |  |  |  | binds | binds
5 | B5 | ~1 | 0.158 | 84.8 | 97.3 | 137 | 149 |  | 
6 | B6 |  |  |  |  |  |  | binds | binds
